Tests used:
[1] = molecular target: the molecule itself; assay: SEC-MALS; 100 μl of 2 mg/ml (45 μM) FrzCD injected on a BioRad EnRich650 column in 50 mM Tris, 50 mM NaCl, pH 8.0, 0.4 ml/min; Wyatt Dawn Heleos II, Debye model
FrzCD-(His)6 = molecular target: T1, FrzCD-(His)6 (Myxococcus xanthus, UniProt P43500 1-417); assay: EMSA; 300 nM DNA; EMSA Fig 3: 10 mM Tris-HCl pH 8, 60 mM NaCl, 10% glycerol, 4 C, 40 min; EMSA S4 Fig: 50 mM Tris pH 7.4, 50 mM NaCl, 1 mM DTT, 10% glycerol, 25 C, 20 min; BLI: PBS pH 7.5, 0.001% Tween-20, 25 C (6His-FrzCDΔ1-130 used as reference subtraction); details: protein: recombinant; tags: C-terminal 6His; chain copies: 2; blunt
T1 sequence: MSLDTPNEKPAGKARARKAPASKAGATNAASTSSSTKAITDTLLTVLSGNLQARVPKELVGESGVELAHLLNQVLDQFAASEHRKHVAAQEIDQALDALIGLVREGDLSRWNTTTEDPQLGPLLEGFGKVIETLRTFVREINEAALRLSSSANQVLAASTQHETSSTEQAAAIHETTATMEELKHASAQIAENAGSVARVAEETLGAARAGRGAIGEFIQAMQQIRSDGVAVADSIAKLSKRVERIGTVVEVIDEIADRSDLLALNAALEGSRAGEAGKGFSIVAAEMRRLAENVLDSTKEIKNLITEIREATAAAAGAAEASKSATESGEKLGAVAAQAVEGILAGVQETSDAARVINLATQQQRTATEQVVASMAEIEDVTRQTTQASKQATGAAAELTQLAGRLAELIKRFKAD

B1: C-terminal-tagged FrzCD-(His)6 (receptor, Myxococcus xanthus, UniProt P43500 1-417, looked up)
chain: T1 sequence
notes: FrzCD, cytoplasmic chemoreceptor (MCP) of the Frz chemosensory system of Myxococcus xanthus; the names of the deletion mutants (Δ131–417) imply 417 residues; also called FrzCD-H6; 6His-FrzCD (as called in the results for this experiment); source: E. coli BL21-AI, purified (HisTrap FF, MonoQ ion exchange)
Q: How did the “stoichiometry N” value [1] turn out when B1 was run?
A: 2

B2: Oligo70 (dsDNA)
DNA 1: CTTGCAGTAGAGCTGACCATGATTACGCCATCAGCAGCTCCAGGTCGTACCTCCAGCTACCAATCCCCG
DNA 2: CGGGGATTGGTAGCTGGAGGTACGACCTGGAGCTGCTGATGGCGTAATCATGGTCAGCTCTACTGCAAG
Q: Does B2 bind (FrzCD-(His)6)?
A: binds
